{"source": "the DeepSol protein solubility set"}
{"test": "soluble on expression in E. coli; label from the status in PepcDB or PDB records"}
{"sequence": "MNRARKTSSCGCFRSAFCLLKPSTSSASEEHGDSDKKLLSVQLITPRDEEEQTSSRSIKIPPLDLNGLDCKKNAVAARRAGRRRTSEGGGVRGKGHFAEVVLDGLQRPVSLLRNQKEKSNSDDNCQEKEPTSPSSSRKKSYDNAPALESLEKLRYILHQLNSGQLPLEDLKRNIEYAALVLETAYMDETRRICDEDDDLAEVTPETVPDEVREWLAATFTRQNAGKKRDKPKFKSVANAIRTGIFFEKLFRKQQVVQCPIPPEIAELMKEVCTWSFSPFQLNEVSEGHALKYVGFELFNRYGFMDRFKVPLTALENYLSALEVGYSKHNNPYHNVVHAADVTQSSHFMLSQTGLANSLGDLELLAVLFGALIHDYEHTGHTNNFHIQSQSQFAMLYNDRSVLENHHVSSCFRLMKEDDKNILTHLTRDEYKELRNMVIEIVLATDMSTHFMQIKTMKSMLSLPEGIDKNKALCLIVHACDISHPAKPWNLHERWTEGVLEEFFRQGDLEASMGLPYSPLCDRHTVHVADSQIGFIDFIVEPTMVVCGELLVKMVEPLVSLPPTDSLFPPSVDGGDDKSPSNALSPLPDLRNSSTSPSSIRRIPLNYAGKLDIPTPWMKFLHENKAHWKERAAKEEEERKIKEAAEAEAAAKQVEENKENGVTTN", "soluble on expression in E. coli": "not soluble"}
{"sequence": "MNRCILLALLPLISAIPVAVNIDDQDAVNLGAYDRARFDLVESFHPLQPASAVTNDQIAEVRAKAAGVRQNEASISIDLPTQMLSGSSGRIPERLAFGEWTEWTSWSMCQNGERSRVRTCVSRKPALRVVCHGDAIEIEKCYVDAGEGHIPVAADPWSIEREISGDFA", "soluble on expression in E. coli": "not soluble"}
{"sequence": "MNRTKGDEEEYWNSSKFKAFTFDDEDDELSQLKESKRAVNSLRDFVDDDDDDDLERVSWSGEPVGSISWSIRETAGNSGSTHEGREQLKSRNSFSSYAQLPKPTSTYSLSSFFRGRTRPGSFQSLSDALSDTPAKSYAPELGRPKGEYRDYSNDWSPSDTVRRLRKGKVCSLERFRSLQDKLQLLEEAVSMHDGNVITAVLIFLKRTLSKEILFRELEVRQVALRHLIHFLKEIGDQKLLLDLFRFLDRTEELALSHYREHLNIQDPDKRKEFLKTCVGLPFSAEDSAHIQDHYTLLERQIIIEANDRHLESAGQTEIFRKHPRKASILNMPLVTTLFYSCFYHYTEAEGTFSSPVNLKKTFKIPDKQYVLTALAARAKLRAWNDVDALFTTKNWLGYTKKRAPIGFHRVVEILHKNNAPVQILQEYVNLVEDVDTKLNLATKFKCHDVVIDTYRDLKDRQQLLAYRSKVDKGSAEEEKIDALLSSSQIRWKN", "soluble on expression in E. coli": "soluble"}
{"sequence": "MNRVDLSIFIPDSLTAETGDLKIKTYKVVLIARAASIFGVKRIVIYHDDADGEARFIRDILTYMDTPQYLRRKVFPIMRELKHVGILPPLRTPHHPTGKPVTGEYRQGLTVKRVKKGTLVDIGADKLALCREKLTVNRIMSFRVVRLGKEILIEPDEPEDRYWGYEVLDTRRNLAESLKTVGADVVVATSRNASPITSILDEVKTRMRGAREAAILFGGPYKGLPEIDADIWVNTLPGQCTETVRTEEAVLATLSVFNMLTQIDEKDE", "soluble on expression in E. coli": "soluble"}
{"sequence": "MNSDDEIYMEGSASSEDDMDDECLSDDDGIARHDQSASDYLNKKDKDNEVLDHDSLEAEMKKAISEVEAVLQVKTGVCRILLHKYKWNKESLLERFYEHPDTIAFLIDAQVIPRQQEVIPAGDAECDICCSMDELSGLSCNHRACAECWQAYLTNKIVSDAQSEIECMAPNCKLLIEDEKVLSYISDPTMVSKYRKLMVASYVEINCLLRWCPGIDCGKAVKVSHWEPRLVVCSCGTCFCFSCGQNWHEPLNCRHLKKWIKKCQDDSETMNWINANTKDCPKCMIPIEKNGGCNRMLCTNSGCRYEFCWMCLEPWTKHGYQYACNGYDETAVKNPQDAQEISRANLKRYLFYFNRYMGHEQSLQLEGKLNIKVAKKMEQMENMSMSWIEVQFLRKAVDILSECRRTLMYTYAFAFYLKKDNNSIIFESNQANLEMETEQLSGFLERDLEDEDLVTLKQKVQDKYRYVEQRRKVLLDHCAEGAEQDIWQYND", "soluble on expression in E. coli": "not soluble"}
{"sequence": "MNSELKARYKVLGSEKEHTKSETLTETLIEVIVNGDVEPGSKISEPELARKYQVSRGPLREALMRLEGLGLIERIPHVGARVTTFSPAKLIELYSVREALEGMAARLAARHITQEELLSLEMLLSTHSKHIDQVEGASYFHQHGDFDFHYRIIQASRNSKLISLLCDELYHLLRMYRYQSPRAQSRPNEALTEHKFILEAIRNRDEELAEMLMRRHISGSRKLIQSQIIHTESLDKD", "soluble on expression in E. coli": "not soluble"}
{"sequence": "MNSEQIYHVDFKQSKRIKSFHYAGGLFQLTSDGVIFVGKDKDNNELPPRWICSSLSVVAKTRDANSGEWGRLLEWVDDDGIKHQWAMPLALLQGDSSDVRRELARLGLTISPSKTARDLLASYIQVFPVEERARCVDKLGWYKEVFVTANEAIGQSLSVAGSVEDWRNSISRLADGNSRLVFAISAAFAPSLANLVGEDSGGFHFRGASSSGKTTALKVAASVWGKPDSYIRLWRSTANGLEGLAALHNDGLLILNELSQMDPKEAGECAYLLANGQGKTRASRCGTARQSMRWSLLFLSAGEESLTSLMAKAGQRCNAGQEIRLADIEADAGAEMGLFEQLHDHINPAAMSLALKEAASQYHGAVGLAWLHKIVKHRAELIALLTNKIQHFVAKVTKPEHSGQIQRVARRFALVAMAGEIATHYELTGWTRGTACNPAEKCFNAWLKDFGEHGNREDRAILSQVRAFFEKEGASRFENENHPNSERLFNRAGFFHTDSEGFRVFMVLSEVYRKEICQGFEPKMVNKVLINAGWIVPGNDGKASQKRRIKGIGIPRCYIFTEKVWSDDYLEHHHHHH", "soluble on expression in E. coli": "soluble"}
{"sequence": "MNSIQIADETYVAADAARVSAAVADRCSWRRWWPDLRLQVTEDRADKGIRWTVTGALTGTMEIWLEPSMDGVLLHYFLHAEPTGVAAWQLARMNLARMTHHRRVAGKKMAFEVKTVLERSRPIGVSPVT", "soluble on expression in E. coli": "not soluble"}
{"sequence": "MNSIWARLRLASSQLPIGGYSYSQGLEAALDNGWVRDAESARTWLVDQLQLNLARFEAPLLAGLLRAALIGDWAACDAASERHRASRETRELAQESRQMGFSLHQLLEALPELDAPGRAWLARQDPPNLAAAWAMAARAWRLDAEEALSAWFWSWLENQLAVLMKTLPLGQLAAQKLASSLLPELDRACAEALRRPAVEGSAAFGLALASMTHETQYSRLFRSLEHHHHHH", "soluble on expression in E. coli": "not soluble"}
{"sequence": "MNSLPVAIIGGGPVGLAAAAHLAVRDVPFVLFEGKSEVGASILEWKHVSLFSPWKYNIDRAAKSLLEKESWKEPAGDRLPTGEQLVRDYLQPLAETKALKPYIYTNAPVQSIYRKGIDKIKDHNRENTPFIIRYKQDNDQKTLRARAVIDATGTWFSPNPIGAGGVPAIGEEEAKDSIYYGIPDVKGKDRSRYEGKTILVVGSGHSAIHTLLDLAQLKEAAPSTRILWAIRRNSPNGLFGGGQEDALPARGQLGLALEALLSKQKVELISSFEMEQIDRVEGRLSVVGVQNESPISLPLVDEIVANTGARPTVDYHRDIRYQLDSKLESVPALAPLIDPNIHSCGTVRPHGEKELRQPEKNFYIAGVKSYGRAPTFLLATGYEQVRSIVASLAGSKKEAERVELQLPKTGVCKSDFLAKRSCCLEHHHHHH", "soluble on expression in E. coli": "soluble"}
{"sequence": "MNSPLAPVGVFDSGVGGLTVARAIIDQLPDEDIVYVGDTGNGPYGPLTIPEIRAHALAIGDDLVGRGVKALVIACNSASSACLRDARERYQVPVVEVILPAVRRAVAATRNGRIGVIGTRATITSHAYQDAFAAARDTEITAVACPRFVDFVERGVTSGRQVLGLAQGYLEPLQRAEVDTLVLGCTHYPLLSGLIQLAMGENVTLVSSAEETAKEVVRVLTEIDLLRPHDAPPATRIFEATGDPEAFTKLAARFLGPVLGGVQPVHPSRIH", "soluble on expression in E. coli": "not soluble"}
{"sequence": "MNSQTTKDIPCFRSYLPDALRLRFEDKLTIRAIAQRLGLSHSTIHTLFQRFLASGIAWPLPDSVSFAQLDAILYANRKKELTEPQIREGSWRKERRTSYSREFKVRLAKQALQPGAVVARIAREHDINNNLLFKWKSQYEDGLLSDDDIQECMPVPVALTDTPEPTRPVTNPFWRNKHDERPEGAPGNVPRCELHLKSGVVKLFDPLTPELLRALIREMKGGIRLEHHHHHH", "soluble on expression in E. coli": "not soluble"}
{"sequence": "MNTANFSAQQLQAERLLLLPSYILLKEGLVQDQAILVENGIFQDIGTHVELTKKYPDIVPVKLQDQLIMPGMIDGHHHLTQSFAKSLAYGEPSEIFKRIWVPLESNLNEQFVYLCTKLAALESLRGGFTTVCDAGTRSEIGMQLMVRALEETGLRCVLSLICNDGRAHSTLELRQNILENAQIFIKSYKQHKNVHPSLAISIPEVASDDMLYEVSKLCANSNIIFQVHVNEHLASVERSIIQQGMRPLEHLAKVGALGPQTLIAHATMLTPSELLLLQRTDTAVSYNPVASQWKGNAVASAHLMHELNIRFALGTDATRADGFRLLDAAEATQKLIFGIPTGDCSTGGGWMWLDHATTAGAEAVGLSQLTGSISIGKQADFLIIDLDTPEFCTSQDITWDMVRLCQRDQIQAVFVGGRICLWQGWPLDWDAKELMCRMKVLTKKAIEASPIQKLHPTAEQHRQLHGQTSQQQSVHI", "soluble on expression in E. coli": "not soluble"}
{"sequence": "MNTDFQNILKQLGKQAQKEAAEKQAAEKNKQKQEQDFDFSQAVGQLSPLKNRQQYYAPPDKTPIKVRPKDNRADEENYFYIGSTYNDPPASFSKNGQGKNDIQRLKNGYYPVVTDVDLHGYTQEEAQKVLNEFIAFTQKRGVCGEIIHGSGLGSKGYKPVLKNMTRNWLMQHPDVLAYAEPREGNDGCVRILLKRKLRQQD", "soluble on expression in E. coli": "not soluble"}
{"sequence": "MNTGHHKVADTLIDFLHRQFPWVESKKIDFLSYCNELMEKMVSGAYLRWIRSHPASYHRVYKTFMYEESLRLEFVSFEPWLPYFEGKMKKMLEQERPDLIVCTHSFPSRILQQLKRKKVLAIPVVNVYTDFFMNSIWGKRFIDYHFVPHQEAKRELIVKHGIDERRIVVTGIPAAALEHHHHHH", "soluble on expression in E. coli": "soluble"}
{"sequence": "MNTLGRFLRLTTFGESHGDVIGGVLDGMPSGIKIDYALLENEMKRRQGGRNVFITPRKEDDKVEITSGVFEDFSTGTPIGFLIHNQRARSKDYDNIKNLFRPSHADFTYFHKYGIRDFRGGGRSSARESAIRVAAGAFAKMLLREIGIVCESGIIEIGGIKAKNYDFNHALKSEIFALDEEQEEAQKTAIQNAIKNHDSIGGVALIRARSIKTNQKLPIGLGQGLYAKLDAKIAEAMMGLNGVKAVEIGKGVESSLLKGSEYNDLMDQKGFLSNRSGGVLGGMSNGEEIIVRVHFKPTPSIFQPQRTIDINGNECECLLKGRHDPCIAIRGSVVCESLLALVLADMVLLNLTSKIEYLKTIYNEN", "soluble on expression in E. coli": "soluble"}
{"sequence": "MNTQKPFENHLKSVDDLKTTYEEYRAGFIAFALEKNKRSTPYIERARALKVAASVAKTPKDLLYLEDIQDALLYASGISDKAKKFLTEDDKKESINNLIENFLEPAGEEFIDELIFRYLLFQGDSLGGTMRNIAGALAQQKLTRAIISALDIANIPYKWLDSRDKKYTNWMDKPEDDYELETFAKGISWTINGKHRTLMYNITVSLVKKNVDICLFNCEPEIYTPQKVHQQPEKYLLLGELKGGIDPAGADEHWKTANTALTRIRNKFSEKGLSPKTIFIGAAIEHSMAEEIWDQLQSGSLTNSANLTKTEQVGSLCRWIINI", "soluble on expression in E. coli": "soluble"}
{"sequence": "MNTRNFSLPQLQNLPIEEARIVADALAVHATSRQIDSAASKLAALAEAGLKGDRQAYAAYQQLLYVLSLSDDVATAQTRRWLARAIYRVEERFMPAADLSRALSEEDFQKRLEQEIAAQSRERHPMSQYVFSGSASRAQLQVFLRHQWFRTFRLYRDAADLLVNLTDVDEAAALARYLYGELGEEDEKGSHPRLLAKLLEAIGLEADFQAVSTMPEEIAYLNNRARAFRHAEVGWGLAVFYITELVVPGNHEKLYRALLQAGLSEDQAEYYKVHISLVPPRAKREWQLIARRIPDVQFQNAFLTSLSQHFRVERAYYDAIWEEMQSVK", "soluble on expression in E. coli": "soluble"}
{"sequence": "MNTVRWNIAVSPDVDQSVRMFIAAQGGGRKGDLSRFIEDAVRAYLFERAVE", "soluble on expression in E. coli": "soluble"}
